{"source": "paper PMC5138093", "about": "(Journal of molecular biology, 2016)", "proteins": {"B1": {"name": "GST fusion of the extracellular domain of IGPR-1 (GST-E-IGPR-1) (domain or fragment, human, UniProt Q96BF3 23-150, looked up)", "chain": "LSVQQGPNLLQVRQGSQATLVCQVDQATAWERLRVKWTKDGAILCQPYITNGSLSLGVCGPQGRLSWQAPSHLTLQLDPVSLNHSGAYVCWAAVEIPELEEAEGNITRLFVDPDDPTQNRNRIASFPG"}}, "target": "the molecule itself", "experiment": "non-reducing SDS-PAGE and western blot", "data": [{"protein": "B1", "values": [{"measurement": "binding result", "value": "binds"}]}]}
